T1: Abp1 SH3 (ABP1_YEAST), P15891
T1 chain: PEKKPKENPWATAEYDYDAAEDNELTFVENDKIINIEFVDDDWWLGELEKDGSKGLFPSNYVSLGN


Target: T1, Abp1 SH3 (ABP1_YEAST), P15891
Assay: SPOT array

| Binder | normalised SPOT signal, Boehringer light units (BLU); mean over the file's lines of this peptide |
| --- | --- |
| KTGNPFVRINPNRP [YBR136W 497-510] | 371 |
| KKLSSSMPNSPKKP [YDL117W 113-126] | 153 |
| KKPASKAPAEKKP [YBL002W 7-19] | 174 |
| KSRLIVNPFIPRRP [YDR409W 855-868] | 360 |
| KSELPKSPYRQKP [YHR184W 123-135] | 205 |
| KSLEDYRPPDEKP [YGR197C 50-62] | 161 |
| KKISFNPVVTPIRP [YFR023W 33-46] | 0 |
| KRSLEENPVNKRP [YAL011W 331-343] | 33.4 |
| KRESLNQPSTTKP [YHR084W 174-186] | 134 |
| KLYYVLYSSLPSKP [YGR216C 582-595] | 0.4 |
| KKKSSPATKVPSKP [YGL207W 456-469] | 65 |
| KRRTSLFPWLHKP [YDR389W 506-518] | 122 |
| KSDVPEDPIYSKP [YBR003W 113-125] | 19.8 |
| KYIKEKGPSSIKP [YGL251C 1061-1073] | 104 |
| KVMENWTPGAPKP [YGL202W 197-209] | 106 |
| KSDKEISPKSQRP [YER025W 165-177] | 75.6 |
| KVKQYIEPESVKP [YBR236C 423-435] | 100 |
| KSRHFTYPEGVKP [YHR006W 264-276] | 55.9 |
| KSQTIILPIYGRP [YGL207W 558-570] | 84.4 |
| KLKELQTITVPGKP [YER124C 120-133] | 131 |
| KTDAKLKPFIYRP [YGR084C 56-68] | 2160 |
| KPEYFPFPIYDKP [YBR086C 485-497] | 96.4 |
| KTREPLQPRPPVKP [YGR084C 83-96] | 706 |
| KQQQEQQNKAPEKP [YGL105W 191-204] | 97.5 |
| KRAKEYIANLPMRP [YGR040W 256-269] | 22 |
| KLHFSSFPNDIRP [YER097W 23-35] | 396 |
| KLDIISDPESERP [YGL004C 356-368] | 107 |
| KVVASKIPVISKP [YHR077C 993-1005] | 126 |
| KKQTQLSSTAPKKP [YGR056W 686-699] | 34.9 |

More lines, now with the values ahead:

| normalised SPOT signal, Boehringer light units (BLU); mean over the file's lines of this peptide | Binder |
| --- | --- |
| 73.1 | KVFLDTHKESPLRP [YKR003W 302-315] |
| 217 | KSYRKAFPNMVKP [YML002W 638-650] |
| 133000 | KPTPPPKPSHLKP [YNL020C 608-620] |
| 9110 | KTATTPPPVLRRP [YMR184W 66-78] |
| 169 | KRLLMKGYIPPYKP [YKL126W 608-621] |
| 95.9 | KKLLLKGYIPPYKP [YMR104C 605-618] |
| 1140 | KPLININPYTRKP [YLR357W 223-235] |
| 98.7 | KQKNIYVISTPKRP [YLR398C 492-505] |
| 1480 | KMIMKLIPKDVKP [YJL131C 312-324] |
| 108 | KLQGSFNPEYIKP [YML072C 1243-1255] |
| 184 | KKSRSTGFKNPLRP [YML061C 150-163] |
| 69.8 | KSGSSQPPSFIKP [YIR007W 614-626] |
| 69.6 | KVHRHEPPVTSKP [YOL066C 148-160] |
| 107 | KSPSNIKLSIPARP [YJL095W 316-329] |
| 119 | KTKAKKEKPKPPKP [YMR044W 279-292] |
| 245 | KLKITRNPNPSKP [YHR208W 27-39] |
| 154 | KPGWVVYPPPPKP [YML035C 221-233] |
| 6230 | KMISNRRPVPRRP [YPR091C 656-668] |
| 89 | KNSDMMIPLDVKP [YOL081W 3046-3058] |
| 15.7 | KNYDVIVPNVWRP [YML115C 378-390] |
| 200 | KLGPISTSKSPKKP [YJL051W 233-246] |
| 202 | KNDGSSSFVKPRRP [YNL215W 286-299] |
| 541 | KMQRYFRPIIVRP [YLR290C 188-200] |
| 128 | KKPKLNKRVLPSKP [YLR183C 347-360] |
| 87.3 | KPFNPTLPEGIRP [YJL050W 736-748] |
| 45.8 | KPVAPTSTDAPAKP [YOL027C 66-79] |
| 71.4 | KRYDYKKPTVNRP [YPL074W 344-356] |
| 200 | KSNLLSVPEAYKP [YIL030C 763-775] |
| 110 | KRKRSKGEVNPSKP [YPR137W 9-22] |
| 98.4 | KSILHGLADEPRRP [YPR084W 202-215] |
